Patent publication US6743893B2, “Receptor-mediated uptake of peptides that bind the human transferrin receptor” (The UAB Research Foundation, priority 2000, dated 2004)

Columns and labels:
[1] = target: T1, human transferrin receptor (hTfR) (Homo sapiens, UniProt P02786); assay: Competition studies of phage binding to CEF+hTfR cells; settings: competitor added prior to phage, 1 hour at 4° C.
T1 construct: expressed in transfected cells; host or cells: chicken embryo fibroblasts (CEF+hTfR), stably transduced with a retroviral vector
T1 sequence (P02786 whole entry): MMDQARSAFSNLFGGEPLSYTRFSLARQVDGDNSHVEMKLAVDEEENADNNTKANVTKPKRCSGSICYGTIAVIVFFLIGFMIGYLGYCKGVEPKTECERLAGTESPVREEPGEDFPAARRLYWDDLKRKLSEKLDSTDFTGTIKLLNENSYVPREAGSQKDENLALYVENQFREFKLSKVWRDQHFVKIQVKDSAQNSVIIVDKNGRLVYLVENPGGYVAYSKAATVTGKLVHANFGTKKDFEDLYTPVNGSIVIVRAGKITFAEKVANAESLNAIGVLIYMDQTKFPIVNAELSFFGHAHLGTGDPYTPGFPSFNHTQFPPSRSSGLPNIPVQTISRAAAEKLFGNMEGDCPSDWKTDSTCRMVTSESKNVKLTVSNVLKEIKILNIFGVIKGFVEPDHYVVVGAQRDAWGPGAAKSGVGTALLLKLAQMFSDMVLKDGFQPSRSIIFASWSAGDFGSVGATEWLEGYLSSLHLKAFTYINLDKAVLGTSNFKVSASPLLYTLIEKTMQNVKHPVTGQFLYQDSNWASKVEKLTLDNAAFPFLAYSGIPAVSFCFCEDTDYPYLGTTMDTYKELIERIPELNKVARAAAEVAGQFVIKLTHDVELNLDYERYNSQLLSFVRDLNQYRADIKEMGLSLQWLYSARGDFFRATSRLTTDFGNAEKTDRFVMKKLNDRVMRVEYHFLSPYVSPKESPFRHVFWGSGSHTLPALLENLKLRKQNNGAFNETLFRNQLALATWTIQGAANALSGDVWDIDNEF
Method: Binding and Competition Studies: Purified phage populations were amplified and were verified to be homogenous through DNA sequencing. Cells were prepared for binding as was described for biopanning procedures. Preparations of plaque-purified and titered phage (1×10^11) were incubated in serum-free Opti-MEM on either CEF or CEF+hTfR cells at 4° C. for 1 hour. The cells were washed repeatedly with Opti-HEM and bound phage were eluted with low pH buffer and subsequently titered. In competition studies, holo-transferrin (Calbiochem, La Jolla, Calif.) or synthesized peptides were added to CEF+hTfR cells prior to addition of the phage for 1 hour at 4° C. Multiple trials were completed and average titers and standard deviations determined. The titers determined on CEF+hTfR cells were divided by the titers determined on CEF cells and multiplied by 100 to yield fold over control data points.
Due to a synthesis error, a peptide with the sequence HAIYPNH (Seq. ID No. 14) was also synthesized.

CEF+hTfR cells = assay: Immunofluorescence binding and internalization on CEF+hTfR cells; type: cell-based, chicken; settings: for endocytosis into CEF+hTfR cells (fluorescence after low pH buffer wash): 37° C., low pH buffer wash before fixation
Method: Immunofluorescence: CEF+hTfR cells were grown on glass coverslips to 50% to 75% confluence. The coverslips were washed and incubated in serum-free Opti-MEM media at 37° C. for 1 hour. […] Cells were washed with Opti-MEM, then fixed in 3% formaldehyde for 30 minutes at 4° C. Alternatively, the cells were acid-washed with 0.2 M glycine-HCl, Ph 2.2, prior to fixation. A GFP monoclonal antibody (Clontech) was used in conjunction with an Oregon-Green Goat Anti-Mouse (Molecular Probes) to augment GFP fluorescence. All slides were counterstained with DAPI (2(4Amidinophenyl)-6indole carbamidinedihydrochioride) (Sigma). The microscopic slides were mounted in Prolong™ antifade medium (Molecular Probes). Images were captured on an AX70 microscope with Olympus Camera (Olympus, Melville, N.Y.) and analyzed with ESPRIT software (Life Science Resources, Cambridge, England). Final figures were assembled using Microsoft Power Point (Microsoft Corp., Redmond, Wash.).
To evaluate the sufficiency of capacity of the peptides to mediate uptake of carrier protein, GFP fusion proteins were prepared. Immunofluorescence was used to determine if the GFP-peptides fusion constructs were internalized using the following assay. GFP-peptide constructs were cloned with a C-terminal peptide addition of either HAIYPRH (Seq. ID No. 1) (GFP-HAIYPRH) or […] (Seq. ID No. 2) (GFP-[…]). These constructs were expressed and purified to greater than 95% by Coomassie staining. Purified proteins were applied to CEF+hTfR cells at 4° C. (which prevents endocytosis) or at 37° C. […] This acid wash determined whether the protein was endocytosed by removing proteins bound at the cell surface. […]
Immunofluorescence images of the localization of various proteins applied to CEF+hTfR cells at either 4° C. or 37° were studied. […] The total fluorescence shown could result from both cell surface and endocytosed proteins.
The cells that had undergone a low pH buffer wash to enable identification of proteins that had been endocytosed were evaluated.

CEF cells = assay: Immunofluorescence binding assays on CEF cells; type: cell-based, chicken; settings: 4° C. or 37° C., CEF cells lack the hTfR
[2] = target: T1, human transferrin receptor (hTfR); assay: Scatchard analysis of 125I-labelled protein binding to CEF+hTfR cells; settings: CEF+hTfR cells on ice, 1 hour, read-out: binding affinity (Scatchard)
Method: 1M NaOH was added to lyse the cells for determining the bound fraction. Both unbound and bound fractions were counted in a gamma counter and binding affinities were determined using Scatchard analysis.
Serial dilutions of labelled proteins were incubated with CEF+hTfR cells on ice in PBS-0.1% BSA in duplicate wells. After 1 hour, the unbound fraction was removed and cells were washed four times. Cells were removed from the well with 1N NaOH. The unbound and bound fractions were counted in a gamma counter and fmoles of bound and unbound were calculated. Scatchard plots were derived by plotting bound versus bound/free of an average value generated by the duplicate wells. A best of fit line was generated using the Excel program (Microsoft Corp.) and the binding affinities were determined by the slope of the plotted lines.

HAIYPNH [peptide synthesized due to a synthesis error, asparagine in place of arginine]
competition of HAIYPRH phage binding to CEF+hTfR cells by added peptide or Tf [1]: no effect

HAIYPRH
competition of HAIYPRH phage binding to CEF+hTfR cells by added peptide or Tf [1]: competed away to background levels | competition of THRPPMWSPVWP phage binding to CEF+hTfR cells by added peptide or Tf [1]: failed to significantly compete

PWRPSHPVWMPT
competition of THRPPMWSPVWP phage binding to CEF+hTfR cells by added peptide or Tf [1]: not by the scrambled 12-mer sequence

THRPPMWSPVWP
competition of HAIYPRH phage binding to CEF+hTfR cells by added peptide or Tf [1]: failed to significantly compete

Texas-Red Tf: Tf conjugated to the Texas-Red fluorochrome, positive control
endocytosis into CEF+hTfR cells (fluorescence after low pH buffer wash) (CEF+hTfR cells): readily endocytosed

Tf: transferrin from human serum, native ligand of hTfR
binding or internalization on CEF cells (CEF cells): neither of the GFP fusion proteins or transferrin bound or internalized

wtGFP: purified wild-type green fluorescent protein, negative control
Kd [2]: 240 µM | localization/binding of protein on CEF+hTfR cells without acid wash (CEF+hTfR cells; 37° C. for one hour, no acid wash): minimal binding | endocytosis into CEF+hTfR cells (fluorescence after low pH buffer wash) (CEF+hTfR cells): unable to be endocytosed
